The subject of assay [1] is mp53/Ras transformed cells and CAPAN-2 cells. Nature of the assay: Immunoblot of p62 and LC3 in cells expressing autophagy modulators. It counts as cell-based. The following applies: cells expressing the protein vs vector control. An excerpt:
Thus, the effects of Plac8 KD on both tumor formation and autophagy can be suppressed by constitutive activation of Rab7.
(§1) Moreover, the molecular machinery employed in autophagosomal/lysosomal fusion, such as Rab7, is required for endosomal/lysosomal fusion, which is also required for tumor formation in some cancers.
To determine if the Plac8 KD-induced loss of tumor formation is specifically due to a loss of autophagy completion, Atg12, a gene required for autophagosomal formation, was overexpressed in Plac8 KD cells.
YAMC, vector, mp53, Ras, and mp53/Ras cells were cultured for two days at 39 C in RPMI with 10% FBS medium and gentamicin in collagen-I coated 15 cm dishes. HT-29, CAPAN-2, PANC-1 and Panc 10.05 cells were cultured for two days at 37 C in maintenance media without selective antibiotics on 15 cm dishes. […] Protein concentration was quantified using Bradford reagent (BioRad) and a Genesys 1 0UV spectrophotometer (Spectronic Unicam). […]
For orientation: A western blot detects proteins with antibodies after separation by electrophoresis.

The test system is the same in assay [2]. Briefly: Immunocompromised mouse tumorigenicity assay, cells expressing autophagy modulators. It counts as in vivo. The following applies: cells expressing the protein or shRNA vs vector control, 5×10^5 cells per injection, 4 weeks mp53/Ras, 5 weeks CAPAN-2. How it is done:
To determine whether cooperative up-regulation of autophagy is required for tumorigenesis Atg12, a gene involved in autophagosome formation, was knocked-down using two independent constructs in mp53/RasV12 and Capan-2 cells. In addition, a genetic rescue experiment was performed by introducing a shRNA resistant form of ATG12 into these cell backgrounds to test for ATG12 specificity of the observed effects. Tumor formation was inhibited by Atg12 KD in both mp53/Ras and CAPAN-2 cell lines and was rescued by expression of the exogenous shRNA resistant Atg12 (FIG. 4.5a, 4.5c).
Cells were cultured on 15 cm dishes for two days without selective antibiotics at 39 C for mp53/Ras cells and at 37 C for HT-29, CAPAN-2, PANC-1, and 5 Panc10.05. Cells were plated at the following densities: mp53/Ras—7.5×10^5, HT-29 —1.5×10^6, CAPAN-2 —4×10^6, PANC—4×10^6, and PANC 10.05—2×10^6. Cells were trypsinized, counted and re-suspended in RPMI medium lacking supplements for mp53/Ras, CAPAN-2, and Panc10.05, and DMEM lacking supplements for HT-29 and PANC-1 at a density of 5×10^5/100 ul for mp53/Ras and CAPAN-2 cells, 1.25×10^5/100 ul for HT-29 cells, 5×10^6/100 ul for PANC-1, 2×10^6/100 ul for Panc10.05. Matrigel (BD biosciences) was mixed with PANC-1 and Panc10.05 cell/medium mixture at a 1:1 ratio. Cell mixtures were then injected intra-dermally, bilaterally into the flanks of CD1-Foxn1 nude mice (Uracell) […]) in the following numbers: mp53/Ras cells, HT29 1.25×10^5 cells, 5×10^5 CAPAN-2-cells. Cell mixtures were injected intradermally, bilaterally into the flanks of NOD/SCID (UCAR-20060-166 (1)) mice in the following cell numbers per injection: PANC-1 —2.5×10^6 cells and Panc10.05 —1×10^6 cells. Tumor volume was measured every week for 4 weeks for mp53/Ras and HT-29 cells, 5 weeks for CAPAN-2 cells, and 6 weeks for PANC-1.

For assay [3], the system named is mp53/Ras transformed and CAPAN-2 cells. Nature of the assay: Endocytosis of fluorescently labeled dextran. It is filed as cell-based. As to conditions: 50 uM Alexa-488 dextran for 1 hr; confocal microscopy and FACS. How it is done: as §1
Cells were plated at 2.5×10^5 cells for vector and Rab5a DN mp53/Ras cells on collagen-I coated 10 cm dishes, and 7.5×10^5 cells for vector and Rab5a DN CAPAN-2 cells on 10 cm dishes and allowed to proliferate for two days in maintenance media. Cells were then treated with 50 uM of Alexa-488 labeled 10,000 MW dextran (Invitrogen) for 1 hr in maintenance medium. The cells were then washed 3× with PBS and trypsinized. Cells were pelleted, resuspended in PBS with 1% BSA, transferred to FACS tubes (Falcon), and placed on ice. DAPI was added to a final concentration of […] and cells were FACS analyzed for Alexa-488 signal, with DAPI exclusion of dead cells. To image cells mp53/Ras and CAPAN-2 cells infected with vector control virus or stabily expressing Rab5a DN were plated onto glass coverslips as described in the immunofluorescent staining of cells section. Cells were then treated with 50 uM of Alexa-488 labeled 10,000 MW dextran for 1 hr in maintenance medium. The media containing dextran was removed and the cells were washed 3 times with PBS. […]

“Also recorded” adds a separate entry of the source.

B1: Atg12: over-expressed 3× Flag-tagged Atg12, a gene required for autophagosomal formation (protein, UniProt O94817 1-140, looked up)
Ubiquitin-like protein ATG12: MAEEPQSVLQLPTSIAAGGEGLTDVSPETTTPEPPSSAAVSPGTEEPAGDTKKKIDILLKAVGDTPIMKTKKWAVERTRTIQGLIDFIKKFLKLVASEQLFIYVNQSFAPSPDQEVGTLYECFGSDGKLVLHYCKSQAWG
modifications: 3x Flag tag
notes: over-expressed 3× Flag-tagged Atg12, a gene required for autophagosomal formation
On to B1, for which the “p62 and LC3 protein levels” value in assay [1] was “p62 and LC3 protein levels were suppressed”. Besides, in assay [2], the “tumor formation in nude mice” value was “tumor inhibitory; also recorded: inhibits tumor formation”.

B2: Rab5a DN: 3× Flag-tagged Rab5a S34N dominant negative mutant, inhibitor of endocytosis (protein, UniProt P20339 1-215, looked up, variant S34N)
Ras-related protein Rab-5A: MASRGATRPNGPNTGNKICQFKLVLLGESAVGKNSLVLRFVKGQFHEFQESTIGAAFLTQTVCLDDTTVKFEIWDTAGQERYHSLAPMYYRGAQAAIVVYDITNEESFARAKNWVKELQRQASPNIVIALSGNKADLANKRAVDFQEAQSYADDNSLLFMETSAKTSMNVNEIFMAIAKKLPKNEPQNPGANSARGRGVDLTEPTQPTRNQCCSN
modifications: 3x Flag tag
B2: the “p62 and LC3 protein levels” value in assay [1] is on record as “no effect on p62 or LC3 levels”. Moreover, the “tumor formation in nude mice” value in assay [2] is “increased tumor size over vector control”; in assay [2] (listed as DN Rab5a), “slightly enhanced tumor formation in transformed YAMC cells and no effect on Capan-2 cells”. Besides, the “endocytosis of Alexa488 labeled dextran” value in assay [3] is “inhibits endocytosis of Alexa488 labeled dextran”.

Source of the values: patent US20130184223A1, “METHODS AND COMPOSITIONS RELATED TO MODULATING AUTOPHAGY” (UNIVERSITY OF ROCHESTER, priority 2010, published 2013).
